Laboratory results taken from US7592168B2, “Cephalosporin C acylase mutant and method for preparing 7-ACA using same” (Sandoz AG, priority 2003, dated 2009).

How the values were obtained:
[1] = Specific activity of CPC acylase to GL-7-ACA; type: biochemical; details: purified enzyme
Experimental: J. Appl. Microbiol. Biotechnol. 23: 559-564, 1995). […] After the reaction, the mixture (200 μl) of 50 mM NaOH and 20% glacial acetic acid (1:2) was added thereto to stop the reaction. 200 μl of the supernatant recovered from the reaction mixture by centrifugation was mixed with 40 μl of 0.5% (w/v) PDAB (p-dimethylaminobenzaldehyde; Sigma, USA) dissolved in a methanol and the reaction mixture was incubated at 37° C. for 10 min. After the reaction, the absorbance of reaction mixture was measured at 415 nm and quantified by comparing with a calibration curve of standard material. […] Biochem. 72: 248-254, 1976) and representing it as an active unit corresponding to 1 mg of protein. The reactivity of CPC acylase mutant to CPC was determined by the following steps of adding the same amount of protein to a reaction mixture, performing an enzyme reaction for a fixed time, measuring the amount of 7-ACA produced in the reaction mixture, and representing it as a relative value. The end-product inhibition by 7-ACA was determined by adding a protein corresponding to the same active unit to a reaction mixture, performing an enzyme reaction for a fixed time; measuring the amount of 7-ACA produced in the reaction mixture, and representing it as a relative value.
Therefore, it has been known that the Pseudomonas sp.

[2] = End-product inhibition by 7-ACA; type: biochemical; details: same active unit of enzyme
Experimental: The enzyme activity of CPC acylase mutant to CPC was measured according to the method described by Park et al. with minor modifications as follows (Park, et al., Kor. J. Appl. Microbiol. Biotechnol. 23: 559-564, 1995). A substrate solution was prepared by dissolving CPC (purity 74.2%; CJ Corp., Korea) in 0.1 M Tris-HCl buffer solution (pH 8.0) at a concentration of 20 mg/ml and adjusting pH to 8 with 1 N NaOH. 20 μl of the CPC solution was mixed with 20 μl of the crude enzyme solution prepared above and the reaction mixture was incubated at 37° C. for 5 min. After the reaction, the mixture (200 μl) of 50 mM NaOH and 20% glacial acetic acid (1:2) was added thereto to stop the reaction. 200 μl of the supernatant recovered from the reaction mixture by centrifugation was mixed with 40 μl of 0.5% (w/v) PDAB (p-dimethylaminobenzaldehyde; Sigma, USA) dissolved in a methanol and the reaction mixture was incubated at 37° C. for 10 min. After the reaction, the absorbance of reaction mixture was measured at 415 nm and quantified by comparing with a calibration curve of standard material. […] Meanwhile, the specific activity of CPC acylase mutant for CPC was determined by measuring the amount of protein remaining in the enzyme solution according to the method described by Bradford (Bradford, M., Anal. Biochem. 72: 248-254, 1976) and representing it as an active unit corresponding to 1 mg of protein. […]

Row | Molecule | specific activity to GL-7-ACA [1] | end-product inhibition by 7-ACA (in words) [2]
1 | Wild-type: Pseudomonas sp. SE83 derived wild-type CPC acylase (AcyII), α-subunit SEQ ID NO: 4 and β-subunit SEQ ID NO: 5, from pBCPC (protein, Pseudomonas sp. SE83) alpha: TMAAKTDREALQAALPPLSGSLSIPGLSAPVRVQRDGWGIPHIKASGEADAYRALGFVHAQDRLFQMELTRRKALGRAAEWLGAEAAEADILVRRLGMEKVCRRDFEALGAEAKDMLRAYVAGVNAFLASGAPLPIEYGLLGAEPEPWEPWHSIAVMRRLGLLMGSVWFKLWRMLALPVVGAANALKLRYDDGGQDLLCIPPGVEAERLEADLAALRPAVDALLKAMGG beta: SNNWAVAPGRTATGRPILAGDPHRVFEIPGMYAQHHLACDRFDMIGLTVPGVPGFPHFAHNGKVAYCVTHAFMDIHDLYLEQFAEDGRTARFGNEFEPVAWRRDRIAVRGGADREFDIVETRHGPVIAGDPLEGAALTLRSVQFAETDLSFDCLTRMPGASTVAQLYDATRGWGLIDHNLVAGDVAGSIGHLVRARVPSRPRENGWLPVPGWSGEHEWRGWIPHEAMPRVIDPPGGLIVTANNRVVADDHPDYLCTDCHPPYRAERIMERLVASPAFAVDDAAAIHADTLSPHVGLLRARLEALGIQGSLPAEELRQTLIAWDGRMDAGSQAASAYNAFRRALTRLVTARSGLEQAIAHPFAAVPPGVSPQGQVWWAVPTLLRNDDAGMLKGWSWDEALSEALSVATQNLTGRGWGEEHRPRFTHPLSAQFPAWAALLNPVSRPIGGDGDTVLANGLVPSAGPEATYGALSRYVFDVGNWDNSRWVVFHGASGHPASPHYADQNAPWSDCAMVPMLYSWDRIAAEAVTSQELVPA | about 23.1 unit/mg protein | 
2 | S12: sixfold CPC acylase mutant, α-subunit SEQ ID NO: 7 and β-subunit SEQ ID NO: 8 (protein, alpha-subunit of mutatnt CPC acylase S12 protein; beta-subunit of mutatnt CPC acylase S12 protein) alpha: TMAAKTDREALQAALPPLSGSLSIPGLSAPVRVQRDGWGIPHIKASGEADAYRALGFVHAQDRLFQMELTRRKALGRAAEWLGAEAAEADILVRRLGMEKVCRRDFEALGAEAKDMLRAYAAGVNAFLASGAPLPIEYSLLGAEPEPWEPWHSIAVMRRLGLLMGSVWFKLWRMLALPVVGAANALKLRYDDGGQDLLCIPPGVEAERLEADLAALRPAVDALLKAMGG beta: SNNWAVAPGRTATGRPILAGDPHRVFEIPGMYAQHHLACDRFDMIGLTVPGVPGFPHNAHNGKVAYCVTHAFMDTHDLYLEQFAEDGRTARFGNEFEPVAWRRDRIAVRGGADREFDIVETRHGPVIAGDPLEGAALTLRSVQFAETDLSFDCLTRMPGASTVAQLYDATRGWGLVDHNLVAGDVAGSIGHLVRARVPSRPRENGWLPVPGWSGEHEWRGWIPHEAMPRVIDPPGGLIVTANNRVVADDHPDYLCTDCHPPYRAERIMERLVASPAFAVDDAAAIHADTLSPHVGLLRARLEALGIQGSLPAEELRQTLIAWDGRMDAGSQAASAYNAFRRALTRLVTARSGLEQAIAHPFAAVPPGVSPQGQVWWAVPTLLRNDDAGMLKGWSWDEALSEALSVATQNLTGRGWGEEHRPRFTHPLSAQFPAWAALLNPVSRPIGGDGDTVLANGLVPSAGPEATYGALCRYVFDVGNWDNSRWVVFHGASGHPASPHYADQNAPWSDCAMVPMLYSWDRIAAEAVTSQELVPA |  | significantly decreased as compared with that of the wild-type enzyme
